According to paper PMC4345975:

Molecular target: GFP–cyclin A (human) (UniProt P20248)
Assay: fluorescence cross-correlation spectroscopy

Sequence of UniProt P20248 (P20248 whole entry): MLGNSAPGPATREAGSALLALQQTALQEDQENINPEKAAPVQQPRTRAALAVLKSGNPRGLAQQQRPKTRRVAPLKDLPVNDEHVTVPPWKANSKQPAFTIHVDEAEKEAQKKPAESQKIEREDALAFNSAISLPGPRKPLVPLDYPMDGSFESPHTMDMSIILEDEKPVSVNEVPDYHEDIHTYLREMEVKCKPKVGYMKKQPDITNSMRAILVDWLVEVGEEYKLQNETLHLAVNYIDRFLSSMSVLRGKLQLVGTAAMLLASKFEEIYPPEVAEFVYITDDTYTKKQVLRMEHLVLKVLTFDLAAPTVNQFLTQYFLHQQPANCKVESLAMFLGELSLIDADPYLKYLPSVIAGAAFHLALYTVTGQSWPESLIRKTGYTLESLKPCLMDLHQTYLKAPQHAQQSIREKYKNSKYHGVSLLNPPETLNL

## mCherry–SAMHD1 (from UniProt Q9Y3Z3 1-626) (natural protein)
  cross-correlation: 9.9%
